Measured values published in paper PMC3704941.
“And” between values parts separate entries of the source, which are not always exact repeats. Equal values may be shown once.

Columns and labels:
[1] = target: truncated form of the monomeric type IV pilin from P. aeruginosa strain K122-4 [pilA (Δ1-28); ΔK122] (Pseudomonas aeruginosa strain K122-4); assay: SEC-MALS; silica-based column, 10 nm pore size, 10 mM Tris pH 7.4; 1 mg·mL^-1 ΔK122 incubated with MPD for 24 hours; Peaks 2-4
[2] = target: truncated form of the monomeric type IV pilin from P. aeruginosa strain K122-4 [pilA (Δ1-28); ΔK122] (Pseudomonas aeruginosa strain K122-4); assay: SEC-MALS; silica-based column, 10 nm pore size, 10 mM Tris pH 7.4; 1 mg·mL^-1 ΔK122 before incubation with MPD; monomer to dimer
[3] = target: truncated form of the monomeric type IV pilin from P. aeruginosa strain K122-4 [pilA (Δ1-28); ΔK122] (Pseudomonas aeruginosa strain K122-4); assay: SEC-MALS; MALS of the SEC-separated Peak 3/4 aliquot of 15 mg·mL^-1 ΔK122 after 24 hours incubation with MPD; signal overload at the detector noted
[4] = target: truncated form of the monomeric type IV pilin from P. aeruginosa strain K122-4 [pilA (Δ1-28); ΔK122] (Pseudomonas aeruginosa strain K122-4); assay: SEC-MALS; silica-based column, 10 nm pore size, 10 mM Tris pH 7.4; 1 mg·mL^-1 ΔK122 incubated with MPD for 3 hours; relative peak areas
[5] = target: truncated form of the monomeric type IV pilin from P. aeruginosa strain K122-4 [pilA (Δ1-28); ΔK122] (Pseudomonas aeruginosa strain K122-4); assay: SEC-MALS; silica-based column, 10 nm pore size, 10 mM Tris pH 7.4; 1 mg·mL^-1 ΔK122 incubated with MPD for 72 hours; relative peak areas

## truncated form of the monomeric type IV pilin from P. aeruginosa strain K122-4 [pilA (Δ1-28); ΔK122] (domain or fragment)
[1]
  stoichiometry N: 14 and 20 and 40
[2]
  percent of total species in the higher molecular weight peaks (before MPD): 17.5%
  stoichiometry N: 2
[3]
  stoichiometry N: 4040
[4]
  percent of total species in the higher molecular weight peaks (3 hours with MPD): 55.1%
[5]
  percent of total protein in the higher molecular weight peaks (72 hours with MPD): 90%
